Source: patent US20140087995A1 (published 2014)
Where two headings read alike, the source gives them in different places. Numbered stars: 1 amine (or outer) side, 2 acyl side, 3 side chain; on linkers, the order of the positions; unused ones are H or OH. Bridge positions count the residues as written; N and C are the ends. Side chains are listed from the residue outwards. Ends that are not written are not given here. * marks the point of attachment. C20 diacid = O=C(O)CCCCCCCCCCCCCCCCCCC(=O)*; γGlu = O=C(O)[C@H](CCC(=O)[*:2])N[*:1]

What was measured:
[1] = biological target: T1, human amylin receptor (amylin 3(a) receptor: human calcitonin receptor plus RAMP-3) (human, UniProt P30988 25-474; O60896 24-148); assay: cell-based or functional assay
T1 sequence (looked up) 1: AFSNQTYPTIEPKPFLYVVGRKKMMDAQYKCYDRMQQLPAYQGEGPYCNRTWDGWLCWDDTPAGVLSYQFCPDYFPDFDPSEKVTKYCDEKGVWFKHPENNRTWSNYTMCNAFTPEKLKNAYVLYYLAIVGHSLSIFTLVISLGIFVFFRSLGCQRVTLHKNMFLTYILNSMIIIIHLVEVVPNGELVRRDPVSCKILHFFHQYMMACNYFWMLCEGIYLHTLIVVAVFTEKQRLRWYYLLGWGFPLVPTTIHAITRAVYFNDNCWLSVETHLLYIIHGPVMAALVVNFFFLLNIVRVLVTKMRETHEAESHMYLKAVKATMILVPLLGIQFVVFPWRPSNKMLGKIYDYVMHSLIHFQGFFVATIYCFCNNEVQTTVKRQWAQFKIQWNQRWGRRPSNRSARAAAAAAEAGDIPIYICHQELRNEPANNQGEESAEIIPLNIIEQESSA
T1 sequence (looked up) 2: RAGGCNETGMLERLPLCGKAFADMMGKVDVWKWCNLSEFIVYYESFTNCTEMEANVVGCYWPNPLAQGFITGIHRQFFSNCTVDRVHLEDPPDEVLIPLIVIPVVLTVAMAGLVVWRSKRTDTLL

[2] = biological target: T2, human calcitonin receptor (human, UniProt P30988 25-474); assay: cell-based or functional assay
T2 sequence (looked up): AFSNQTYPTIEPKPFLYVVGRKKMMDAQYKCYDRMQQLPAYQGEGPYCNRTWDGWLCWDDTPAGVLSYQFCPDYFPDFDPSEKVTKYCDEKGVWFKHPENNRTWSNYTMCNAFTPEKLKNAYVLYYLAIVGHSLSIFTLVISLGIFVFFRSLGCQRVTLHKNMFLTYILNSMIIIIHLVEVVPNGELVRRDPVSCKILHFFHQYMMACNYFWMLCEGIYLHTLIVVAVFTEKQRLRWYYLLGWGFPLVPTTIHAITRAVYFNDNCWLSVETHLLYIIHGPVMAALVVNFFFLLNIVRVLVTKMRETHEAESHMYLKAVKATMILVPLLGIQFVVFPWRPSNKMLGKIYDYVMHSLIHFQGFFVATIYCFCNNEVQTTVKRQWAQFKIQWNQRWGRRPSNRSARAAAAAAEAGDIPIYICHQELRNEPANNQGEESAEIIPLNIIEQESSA

[3] = biological target: T1, human amylin receptor (amylin 3(a) …); assay: cell-based or functional assay; remark: listed apart in the source
[4] = biological target: T2, human calcitonin receptor; assay: cell-based or functional assay; remark: listed apart in the source
[5] = biological target: T1, human amylin receptor (amylin 3(a) …); assay: SPA competition, displacement of 125I-rat amylin from membranes of BHK cells with human calcitonin receptor + RAMP-3 (Assay V)
How it was run: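 SPA beads + BHK amylin 3(a)/CRE-luc membranes, 35 ng/μL final; buffer 50 mM Hepes pH 7.4, 1 mM CaCl2, 5 mM MgCl₂, 0.1% OA, 0.02% Tween20. 120 min, 25° C, shaken; scintillation count. IC₅₀ by one-site binding competition fit, taken as receptor affinity.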

[6] = biological target: T1, human amylin receptor (amylin 3(a) …); assay: as above; remark: listed apart in the source
Method: The binding assay was performed using scintillation proximity assay (SPA) beads (RPNQ0001) from PerkinElmer and cell membranes from the Amylin 3(a)/CRE-luc cells (as described in Assay (II)) were used. Membranes were prepared in the following way; the cells were rinsed with PBS and incubated with Versene for approximately 5 min before harvesting. The cells were flushed with PBS and the cell-suspension was centrifuged for 5 min at 1000 rpm. Cells were homogenized (ultrathurrax) in a buffer containing 20 mM Na-HEPES and 10 mM EDTA (pH 7.4) and centrifuged at 20.000 rpm for 15 min. The resulting pellet was resuspended, homogenized and centrifuged (20.000 rpm, 15 min) in a buffer containing 20 mM Na-HEPES and 0.1 mM EDTA (pH 7.4, buffer 2). The resulting pellet was resuspended in buffer 2 and protein concentration was measured (BCA protein Assay, Pierce). The homogenate was kept cold during the whole procedure. The membranes were kept at −80° C. until use. The assay was performed in a 384 well Optiplate (PerkinElmer) in a total volume of 40 ul. Membranes were mixed with SPA beads. Final concentration of membranes 35 ng/μL final and SPA beads was 0.05 mg/well. Test-compounds were dissolved in DMSO and further diluted in assay buffer (50 mM Hepes, pH 7.4, 1 mM CaCl2, 5 mM MgCl₂, 0.1% OA and 0.02% Tween20). […] The final mixture was incubated with shaking at 400 rpm for 120 min at 25° C. prior to centrifugation (1500 rpm, 10 min). Samples were analyzed on TopCounter™ (Packard). The IC₅₀ was calculated using (one site binding competition analysis) GraphPad Prism5 as a measure of receptor affinity.

- hAmylin-R funct. EC50 (pM) [1]: 425 pM
- hCTR funct. EC50 (pM) [2]: 5580 pM
- hAmylin-R funct. EC50 (pM) [3]: 425 pM
- hCTR funct. EC50 (pM) [4]: 5580 pM
- IC50 [5]: 0.992 nM
- IC50 [6]: 0.992 nM
B1: N^ε1-[(4S)-4-carboxy-4-(19-carboxynonadecanoylamino)butanoyl]-[Glu14,Arg17,Pro21,Pro27,His35]-h-amylin (peptide)
peptide: K([γGlu-C20 diacid])CNTATCATQRLAEFLRHSSPNFGAIPSSTNVGSHTY-NH2
modifications: disulfide 2-7; N-terminus assumed
SMILES: CC[C@H](C)[C@H](NC(=O)[C@H](C)NC(=O)CNC(=O)[C@H](Cc1ccccc1)NC(=O)[C@H](CC(N)=O)NC(=O)[C@@H]1CCCN1C(=O)[C@H](CO)NC(=O)[C@H](CO)NC(=O)[C@H](Cc1c[nH]cn1)NC(=O)[C@H](CCCNC(=N)N)NC(=O)[C@H](CC(C)C)NC(=O)[C@H](Cc1ccccc1)NC(=O)[C@H](CCC(=O)O)NC(=O)[C@H](C)NC(=O)[C@H](CC(C)C)NC(=O)[C@H](CCCNC(=N)N)NC(=O)[C@H](CCC(N)=O)NC(=O)[C@@H](NC(=O)[C@H](C)NC(=O)[C@@H]1CSSC[C@H](NC(=O)[C@@H](N)CCCCNC(=O)CC[C@H](NC(=O)CCCCCCCCCCCCCCCCCCC(=O)O)C(=O)O)C(=O)N[C@@H](CC(N)=O)C(=O)N[C@@H]([C@@H](C)O)C(=O)N[C@@H](C)C(=O)N[C@@H]([C@@H](C)O)C(=O)N1)[C@@H](C)O)C(=O)N1CCC[C@H]1C(=O)N[C@@H](CO)C(=O)N[C@@H](CO)C(=O)N[C@H](C(=O)N[C@@H](CC(N)=O)C(=O)N[C@H](C(=O)NCC(=O)N[C@@H](CO)C(=O)N[C@@H](Cc1c[nH]cn1)C(=O)N[C@H](C(=O)N[C@@H](Cc1ccc(O)cc1)C(N)=O)[C@@H](C)O)C(C)C)[C@@H](C)O
